Laboratory results as given in US20240189439A1.
Changes are numbered by the printed parent chain.

B1: Y010356 (antibody, V domains shown)
VH: EVQLVESGGGLVKPGGSLRLSCAASGFTFSNYWISWVRQAPGKGLEWVGRIKSKTYGGTTDYAEPVKGRFTISRDDSKNTLYLQMNSLKTEDTAVYYCARVSGYYSHSGGFDVWGQGTLVTVSS
VL: DIQMTQSPSSLSASVGDRVTITCRASQGISNYLAWYQQKPGKVPKLLIYAASTLQSGVPSRFSGSGSGTDFTLTISSLQPEDVATYYCQKTWRTPGTFGQGTKVEIK
B2: Y010355 (antibody, V domains shown)
VH: EVQLVESGGGLVKPGGSLRLSCAASGFTFSNYWISWVRQAPGKGLEWVGRIKSKTYGGTTDYAEPVKGRFTISRDDSKNTLYLQMNSLKTEDTAVYYCARTSRRSYAFDYWGQGTLVTVSS
VL: DIQMTQSPSTLSASVGDRVTITCRASQSISSWLAWYQQKPGKAPKLLIYDASSLESGVPSRFSGSGSGTEFTLTISSLQPEDFATYYCQQITRYPVTFGQGTKVEIK
B3: Y010417 (antibody, V domains shown)
VH: EVQLVQSGAEVKKPGESLKISCKGSGYSFTSYWIGWVRQMPGKGLEWMGIIYPGDSDTRYSPSFQGQVTISADKSISTAYLQWSSLKASDTAMYYCARGSSAASGLSGDLWGQGTLVTVSS
VL: DIQMTQSPSSLSASVGDRVTITCRASQSISSYLNWYQQKPGKAPKLLIYAASSLQSGVPSRFSGSGSGTDFTLTISSLQPEDFATYYCQQDYYSPFTFGQGTKVEIK
B4: Y010900 (antibody, V domains shown)
VH: EVQLVESGGGLVKPGGSLRLSCAASGFTFSNAWMSWVRQAPGKGLEWVGRIKSKTDAGTTDYAAPVKGRFTISRDDSKNTLYLQMNSLKTEDTAVYYCARTIYPSAPSSSLDYWGQGTLVTVSS
VL: B1 VL with K90Q, T91L, W92I, R93F, T94F, G96L
B5: Y010910 (antibody, V domains shown)
VH: EVQLVESGGGLVKPGGSLRLSCAASGFTFSNAWMSWVRQAPGKGLEWVGRIKSKTDAGTTDYAAPVKGRFTISRDDSKNTLYLQMNSLKTEDTAVYYCARVASPSAPGGFDYWGQGTLVTVSS
VL: B1 VL with K90Q, T91S, W92L, R93F, T94A, G96F
B6: Y010906 (antibody, V domains shown)
VH: EVQLVESGGGLVKPGGSLRLSCAASGFTFSNAWMSWVRQAPGKGLEWVGRIKSKTDAGTTDYAAPVKGRFTISRDDSKNTLYLQMNSLKTEDTAVYYCARDEYPWGWFDVWGQGTLVTVSS
VL: B3 VL with L11V, S28G, Y32W, N34A, D91Y, Y92I, Y93F, S94Y, F96L
B7: Y010903 (antibody, V domains shown)
VH: EVQLVESGGGLVKPGGSLRLSCAASGFTFSNAWMSWVRQAPGKGLEWVGRIKSKTDAGTTDYAAPVKGRFTISRDDSKNTLYLQMNSLKTEDTAVYYCARASHRLHSLFDVWGQGTLVTVSS
VL: B2 VL with I91G, T92L, R93F, V96H
B8: MOR024354 (antibody, V domains shown)
VH: QVQLLESGGGLVQPGGSLRLSCAASGFTFSSFGMSWVRQAPGKGLEWVSAISYSGSDTYYADSVKGRFTISRDNSKNTLYLQMNSLRAEDTAVYYCARDVGVMDYWGQGTLVTVSS
VL: SYELTQPLSVSVALGQTARITCSGDNLGTYYAHWYQQKPGQAPVLVIYSQSHRPSGIPERFSGSNSGNTATLTISRAQAGDEADYYCGAWDAPSPELVFGGGTKLTVL

molecular target: human PMEL17 (human) (UniProt P40967); test: FACS titration of IgG on G-361 cells (human melanoma), PE detection antibody
Sequence (P40967 25-661): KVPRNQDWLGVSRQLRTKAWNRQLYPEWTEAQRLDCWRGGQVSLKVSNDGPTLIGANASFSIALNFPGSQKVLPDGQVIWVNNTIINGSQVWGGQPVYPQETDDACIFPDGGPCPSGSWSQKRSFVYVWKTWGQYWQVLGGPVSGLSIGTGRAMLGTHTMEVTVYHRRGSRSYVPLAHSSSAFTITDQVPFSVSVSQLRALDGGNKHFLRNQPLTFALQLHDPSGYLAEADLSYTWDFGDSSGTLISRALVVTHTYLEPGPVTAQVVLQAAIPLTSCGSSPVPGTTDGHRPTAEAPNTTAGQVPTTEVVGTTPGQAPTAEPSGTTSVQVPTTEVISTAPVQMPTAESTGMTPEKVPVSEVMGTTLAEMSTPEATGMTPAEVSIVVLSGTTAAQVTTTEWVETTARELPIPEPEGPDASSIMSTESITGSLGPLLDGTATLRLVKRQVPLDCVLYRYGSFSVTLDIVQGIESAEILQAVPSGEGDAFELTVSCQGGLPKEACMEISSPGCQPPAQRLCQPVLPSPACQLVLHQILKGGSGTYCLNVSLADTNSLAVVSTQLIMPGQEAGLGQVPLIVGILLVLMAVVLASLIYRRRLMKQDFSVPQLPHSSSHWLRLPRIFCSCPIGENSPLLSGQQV

First: B1
Second: B2
The EC50 of the first is 3.2-fold higher: 1.6 nM for the first, 0.5 nM for the second.

Work on B3 yielded an EC50 of 2.8 nM.

molecular target: human PMEL17 (human) (UniProt P40967); test: FACS titration of IgG on G-361 cells (human melanoma), Alexa Fluor detection antibody

First: B4
Second: B5
The EC50 of the first is 7.7-fold lower: 1.3 nM for the first, 10 nM for the second. The first is the more potent here.

First: B6
Second: B7
The EC50 of the first is 1.6-fold lower: 2 nM for the first, 3.2 nM for the second.

With B8 the EC50 was 1.7 nM.
